# Starred links: 1 amine or outer side, 2 acyl side, 3 side chain; linkers in the order of their positions; H or OH if unused. Positions of bridges follow the written chain, without caps; N, C: chain ends. Non-standard residues stand in square brackets, D forms with d. Primed or numbered codes have the meaning given here. B5(4) = 2,2-bis(4-pentenyl)glycine = 2-amino-2-(pent-4-en-1-yl)hept-6-enoic acid (stitching residue), C=CCCCC(CCCC=C)(N[*:1])C(=O)[*:2]; B5(9) = 2-amino-2-(pent-4-en-1-yl)hept-6-enoic acid (2,2-bis(4-pentenyl)glycine), C=CCCCC(CCCC=C)(N[*:1])C(=O)[*:2]; B5(19) = 2-amino-2-(pent-4-en-1-yl)hept-6-enoic acid (bis(4-pentenyl)glycine), C=CCCCC(CCCC=C)(N[*:1])C(=O)[*:2]; 23FF = 2,3-difluoro-L-phenylalanine, O=C([C@H](Cc1cccc(F)c1F)N[*:1])[*:2]; Phe(3-CF3) = N[C@@H](Cc1cccc(C(F)(F)F)c1)C(=O)O; Phe(3,5-F2) = N[C@@H](Cc1cc(F)cc(F)c1)C(=O)O; Phe(3-F) = N[C@@H](Cc1cccc(F)c1)C(=O)O; Bta = N[C@@H](Cc1csc2ccccc12)C(=O)O; αAllylPro = C=CC[C@@]1(C(=O)O)CCCN1; S8 = C=CCCCCCC[C@](C)(N)C(=O)O
# T1: full-length beta-Catenin (Uniprot ID P35222) (Homo sapiens (Human), UniProt P35222 1-781)
# T1 construct: also called bCat; B-Catenin
# T1 sequence: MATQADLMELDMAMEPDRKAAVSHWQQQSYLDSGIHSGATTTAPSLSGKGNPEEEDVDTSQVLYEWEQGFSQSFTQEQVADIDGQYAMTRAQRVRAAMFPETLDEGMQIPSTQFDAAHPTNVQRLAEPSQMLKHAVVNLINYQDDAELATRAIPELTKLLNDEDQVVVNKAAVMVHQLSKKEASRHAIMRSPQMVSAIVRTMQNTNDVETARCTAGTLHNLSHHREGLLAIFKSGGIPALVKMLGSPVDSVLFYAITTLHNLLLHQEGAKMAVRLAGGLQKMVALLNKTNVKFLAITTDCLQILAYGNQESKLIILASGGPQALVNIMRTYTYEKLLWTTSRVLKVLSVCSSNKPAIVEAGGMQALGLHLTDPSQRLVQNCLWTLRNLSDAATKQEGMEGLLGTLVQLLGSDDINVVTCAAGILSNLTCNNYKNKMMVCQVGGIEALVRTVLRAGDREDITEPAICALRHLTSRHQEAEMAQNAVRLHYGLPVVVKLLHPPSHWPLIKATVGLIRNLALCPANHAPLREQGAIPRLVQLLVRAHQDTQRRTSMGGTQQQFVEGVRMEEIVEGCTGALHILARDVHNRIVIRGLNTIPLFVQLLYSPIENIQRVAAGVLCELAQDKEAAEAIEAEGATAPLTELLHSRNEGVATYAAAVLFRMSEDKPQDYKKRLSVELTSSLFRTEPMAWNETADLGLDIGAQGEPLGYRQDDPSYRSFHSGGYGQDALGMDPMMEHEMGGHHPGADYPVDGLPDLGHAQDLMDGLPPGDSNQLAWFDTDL
# Target: T1, full-length beta-Catenin (Uniprot ID …)
# Assay: fluorescence polarization competition; 10 nM full-length beta-catenin, competitor 10 nM 5FAM-TCF4(10-53)
# Procedure: The plate was incubated protected from light for 60 minutes at 20° C. prior to read. Reads were performed on a CLARIOstar plate reader (BMG Labtech) in duplicate, and data were fitted to a 1:1 binding model with hill slope using an in-house script. All provided concentrations are final concentrations.
row,EC50,Binder
1,5 µM,"Ac-[αAllylPro]DA[B5(9)]DEAAFV[S8][23FF][Bta]Q-NH2 (staple 1-4, 4-11; also: earlier eluting HPLC isomer, E/Z not assigned, Stapled peptide) [I-388]"
2,5 µM,"Ac-[αAllylPro]DA[B5(9)]DEAAFV[S8][23FF][Bta]Q-NH2 (staple 1-4, 4-11; also: later eluting HPLC isomer, E/Z not assigned, Stapled peptide) [I-389]"
3,3.65 µM,"XDAXDNAAFVXFXQ (not fully specified; Ac-PL3-Asp-Ala-B5-Asp-Asn-Ala-Ala-Phe-Val-S8-3FF-BztA-Gln-NH2: N-terminal acetyl, C-terminal amide; non-natural PL3(1), B5(4), S8(11), 3FF(12), BztA(13); staples PL3-B5 and B5-S8, Stapled peptide) [I-381]"
4,1.91 µM,"Ac-[αAllylPro]DA[B5(9)]DEAA[23FF]V[S8]F[Bta]Q-NH2 (staple 1-4, 4-11; also: later eluting HPLC isomer, E/Z not assigned, Stapled peptide) [I-391]"
5,3.43 µM,"XDAXDHAAFVXFXQ (not fully specified; Ac-PL3-Asp-Ala-B5-Asp-His-Ala-Ala-Phe-Val-S8-3FF-BztA-Gln-NH2: N-terminal acetyl, C-terminal amide; non-natural PL3(1), B5(4), S8(11), 3FF(12), BztA(13); staples PL3-B5 and B5-S8, Stapled peptide) [I-396]"
6,5 µM,"Ac-[αAllylPro]DA[B5(9)]DEAAFV[S8][Phe(3,5-F2)][Bta]Q-NH2 (staple 1-4, 4-11, Stapled peptide composition (olefin metathesis)) [I-394]"
7,3.42 µM,"Ac-[αAllylPro]DA[B5(9)]DEAA[23FF]V[S8]F[Bta]Q-NH2 (staple 1-4, 4-11; also: earlier eluting HPLC isomer, E/Z not assigned, Stapled peptide) [I-390]"

# Further lines, the binder ahead of its results:
row,Binder,EC50
1,"Ac-[αAllylPro]DA[B5(9)]DDAA[Phe(3-CF3)]Q[S8]F[Bta]Q-NH2 (staple 1-4, 4-11; not fully specified; printed as Ac-PL3-Asp-Ala-B5-Asp-Asp-Ala-Ala-3F3MeF-Gln-S8-Phe-BztA-Gln-NH2, Stapled peptide) [I-380]",0.552 µM
2,"Ac-[αAllylPro]DA[B5(4)]DDAA[Phe(3-CF3)]A[S8]F[Bta]Q-NH2 (staple 1-4, 4-11; not fully specified; printed as Ac-PL3-Asp-Ala-B5-Asp-Asp-Ala-Ala-3F3MeF-Ala-S8-Phe-BztA-Gln-NH2, Stapled peptide) [I-374]",3.01 µM
3,"Ac-[αAllylPro]DA[B5(4)]DDAA[Phe(3-CF3)]A[S8]F[Bta]Q-NH2 (staple 1-4, 4-11; not fully specified; printed as Ac-PL3-Asp-Ala-B5-Asp-Asp-Ala-Ala-3F3MeF-Ala-S8-Phe-BztA-Gln-NH2, Stapled peptide) [I-377]",1.32 µM
4,"Ac-[αAllylPro]DA[B5(19)]DDAAHA[S8]F[Bta]Q-NH2 (staple 1-4, 4-11; also: later eluting HPLC staple isomer, Stapled peptide) [I-364]",5 µM
5,"Ac-[αAllylPro]DA[B5(9)]DDAA[Phe(3-CF3)]Q[S8]F[Bta]Q-NH2 (staple 1-4, 4-11; not fully specified; printed as Ac-PL3-Asp-Ala-B5-Asp-Asp-Ala-Ala-3F3MeF-Gln-S8-Phe-BztA-Gln-NH2, Stapled peptide) [I-378]",1.34 µM
6,"Ac-[αAllylPro]DA[B5(4)]DDAA[Phe(3-CF3)]A[S8]F[Bta]Q-NH2 (staple 1-4, 4-11; not fully specified; printed as Ac-PL3-Asp-Ala-B5-Asp-Asp-Ala-Ala-3F3MeF-Ala-S8-Phe-BztA-Gln-NH2, Stapled peptide) [I-375]",3.01 µM
7,"Ac-[αAllylPro]DA[B5(4)]DDAA[Phe(3-CF3)]A[S8]F[Bta]Q-NH2 (staple 1-4, 4-11; not fully specified; printed as Ac-PL3-Asp-Ala-B5-Asp-Asp-Ala-Ala-3F3MeF-Ala-S8-Phe-BztA-Gln-NH2, Stapled peptide) [I-376]",1.32 µM
8,"Ac-[αAllylPro]DA[B5(19)]DDAAHA[S8]F[Bta]Q-NH2 (staple 1-4, 4-11; also: earlier eluting HPLC staple isomer, Stapled peptide) [I-363]",5 µM
9,"Ac-[αAllylPro]DA[B5(19)]DDAAFA[S8]H[Bta]Q-NH2 (staple 1-4, 4-11, Stapled peptide composition (olefin metathesis)) [I-362]",3.66 µM
10,"Ac-[αAllylPro]DA[B5(19)]DDAAFA[S8][Phe(3-F)][Bta]Q-NH2 (staple 1-4, 4-11, Stapled peptide composition (olefin metathesis)) [I-371]",1.39 µM
11,"Ac-[αAllylPro]DA[B5(9)]DDAA[Phe(3-CF3)]Q[S8]F[Bta]Q-NH2 (staple 1-4, 4-11; not fully specified; printed as Ac-PL3-Asp-Ala-B5-Asp-Asp-Ala-Ala-3F3MeF-Gln-S8-Phe-BztA-Gln-NH2, Stapled peptide) [I-379]",1.34 µM
12,"Ac-[αAllylPro]DA[B5(4)]DDAA[Phe(3-CF3)]V[S8]F[Bta]Q-NH2 (staple 1-4, 4-11, Stapled peptide composition (olefin metathesis)) [I-373]",0.945 µM

# From patent US20240116985A1 (published 2024)
